Drawing on PMC5856381, this text covers stoichiometry N for one substance.

This assay has as its target recombinant haptoglobin Hp1S, C1r-LP processed (rHp 1–1) (human) (UniProt P00738). In words: non-reducing SDS-PAGE; Coomassie-stained gel of non-reduced protein samples; disulfide-linked dimers and multimers.

As to “recombinant haptoglobin Hp1S, C1r-LP processed (rHp 1–1) (from UniProt P00738-2 19-101) (natural protein)”, the stoichiometry N turned out to be 2.

A word on the stoichiometry N: it is the number of molecules, sites or subunits per partner or assembly.
